The supplement of paper PMC9170038

Each sequence was assayed on K4 kissing-loop RNA reporter (assay: apparent KD of K4 kissing-loop reporter; higher = weaker reporter binding). Conditions: Eterna round: R107; input ligand: none.
Description: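 RNA-MaP round R107: designed RNA switches with theophylline, tryptophan, arginine or FMN aptamers are transcribed on-chip within common flanks. They are titrated with a labelled K4 kissing-loop RNA reporter in RNA-MaP buffer (100 mM Tris pH 7.5, 80 mM KCl, 4 mM MgCl2), without ligand or with the indicated ligand. Median apparent KD per design.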
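Further: bound reporter read as fluorescence of individual clusters on recovered sequencing chips by microscopy, with normalized cluster intensities fitted with a binding model.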

Sequence	apparent KD of K4 kissing-loop reporter
UGUGUUUACCUGACUCAGUGAUGUUGAGAAGGAGCGUGCAAAAGCACAGGUAGGUCGCUCAACCUAAAUUCAGGUGAGCACUAAA	255 nM

Same assay, conditions: Eterna round: R107; input ligand: theophylline 20 uM

Sequence	apparent KD of K4 kissing-loop reporter
AAGGAAUGUAUAGAUUAUAUACAUUCAACAGAGGAUAUGCAUUAUUGCAGAAGGCUGAAUGCAGUGAUGUUGCAAUAAUUAUUUA [#09 K4 FMN A Same State]	291 nM
ACGUAGUACGUAGGAUAUCAGAGAUCAGUUAGUGAGAUCGAGUGAUGUUCGAUCAUGUGUUCAGUUUGAGAAGGAUGUAGUAGGA [KL-SSFMN-B5]	408 nM
GUACGCUCUCGAGUGAUGUUCGGUAAUCCUUAGGAUAUCGCUUUUGCGAGAAGGAAGGGAAUGAGGAAACUCGUUCUGAGUGUAC [FMN A 21]	481 nM
CCGAGCCUGACGAAAGUCAGGCUCUGCGAGCGAGGACCGGUACGGCCGCCACUCGGUGCAGUGAUGUUGCAUGGCCGCAAGGCCG [#2 Exclusion - Tryptophan A Attempt #22 (HarryS)]	261 nM
UUUUUGGAGAAUUAUAGUGAUGUUAUGAAGGAGGAUAUCUGGAGAUGGAGAAGGCCUAGUGGCUCAGCCAUGGAGGGUGGGUGGG [ExFMNA.aA]	655 nM
AGACUACCACACUGUCAAUAGACAGUGGACUAGGAUAUGCUGAUAAGCAGAAGGAGUGAUGUUCCUUGGUAGUCAAUAAAAUAAU [FmnAX 13 G28+U67]	335 nM
GGGAGAGCGCGAAGGAGCGCCCUGACAGGUUGCUGCCGUGGGCAGUGAUGUUGCUCAGUCCGGCAGGUAGGUCGCGUGCUCUCCC	200 nM
ACGACGCAUAGUGAUACCAGCUAUAUAUGAGUGAUGUUCUACCUAAAAUGGUAAUAAUUUAGCCCUUGGCAGCACUAUGCGUCAG [KL-SSTheoB4]	562 nM
AGGAGUGAUGUUCCUACAUAGACGGUCCAACGAGGACCGGUACGGCCGCCACUCGCGACCCAGUGAUGUUGGGAUUCACCGUACA [Exclusion Tryptophan A Gf 14]	836 nM
UUAGAAGUAUACUUCAAGAGCUAUACUGAUACCAGAGUCAAUUGACUCCCUUGGCAGCGGAUCGAGUGAUGUUCGUAAGCUCAUU [AK4 SS Theophylline A]	521 nM
UAAGAGGACCACUGCAAGAGUCCUCGAAUACGAGGACCGGUACGGCCGCCACUCGAUAACUUGCAGUGAUGUUGCAAGUAAGAAU [(T)''-(K)'-(T)'-(T1)-(T2)-(K1)-(K2)_Design1]	144 nM
UGUGUUUACCUGACUCAGUGAUGUUGAGAAGGAGCGUGCAAAGGCACAGGUAGGUCGCUCAACCUAAAUUCAGGUGAGCACUAAA	310 nM
UUCAGUGAUGUUGAACACUGUUGUAUAAACUAGGAUAUGCUGAUAAGCAGAAGGAGUGAUGUUCCGUUCAUCAUCAGAAUUAAAU [KL-XFMN-A3]	424 nM
CCUAUCUCAUACGAUACCAGUCAAUUAAAUUUUAUAAAUGCCAUCACCGAGUGAUGUUCGGACCCUUGGCAGCGUAUGGGAUAGG [Ex Theophylline B K4 2]	310 nM
CCAGGACGAUGAGGAGGAUGAAUUACUGAAGGAGCGCAUAUGGUUGCAGGUAGGUCGCGGUGAACAAGUAUAGUGAUGUUAUACC [SSArgA.T]	343 nM
GCGCGUCAUGUCAGCGGUGACUACGUCGAUACCAGCAGGGAAACCUGCCCUUGGCAGCGACGCGCUGGAGUGAUGUUCCGACGGA [#2 Exclusion - Theophylline A Attempt #6 (HarryS)]	854 nM
CUCGAGUGAUGUUCGAUUAUUUAUACAGAUACCAGUGAAUUUUAACACCCUUGGCAGCUGGUUGUAUCUUUGUAAUUUACACAAG [JR_ExcTheophyA_Sub005]	151 nM
AGAAGGAGAACUGCAAGAACUCCUUCAGACUAGGAUAUCAGGAAACUGAGAAGGAGUCAACUUGCAGUGAUGUUGCAAGAAUAAU [[F]''-[K]'-[F]'-[F1]-[F2]-[K1]-[K2]_Design1]	103 nM
ACGGGCGGCUGAAGGAGCGGGCGGGCCCGAGUGAUGUUCGGGUGGGCCGUGAGGCCCGGAGCCCAGGUAGGUCGCGGUUCCGUCC [#2 Same State - Arginine B Attempt #21 (HarryS)]	171 nM
CUGGGUUGACGAAAAGUCAACAAACGAGAAGGAGCGCACGAAAGUGCAGGUAGGUCGCUCAGUCCAGUGAUGUUGGAUCAUCCAG [#SwitchBubble 9 #K4Late]	840 nM
GAAUUAUGUAGAAGGAGCGUUAGAAGGUAUAGGUGUGAGUGAUGUUCGGAUUUGUUAAUUUGACAGGUAGGUCGCUACAGAAGGA [KL-SSArg B17 #analogue]	132 nM
UUGAGCCGGACUCAAGUCCGGCUCUGCGAGCGAGGACCGGUACGGCCGCCACUCGGUGCAGUGAUGUUGCAUGGCCGCAAGGCCG [#2 Exclusion - Tryptophan A Attempt #13 (HarryS)]	404 nM
UGUGGUGUAUCCUUUAGGAGUGAUGUUUUUCGAGGACCGGUACGGCCGCCACUCGAGUGAUGAGAGCGUCGUUGUGGUGGUUUGU [#16 K4 Tryptophan A Exclusion]	697 nM
AAAAUAAACCAGUGAUGUUGGUGUCUAGAUACCAGCGACGAAAGUCGCCCUUGGCAGCUAUGGACGUACAAAAUAAGUACGUCCU [MatMod 6 - Jieux - Same State - Theophylline A]	679 nM
AAAUUUUAAAGUGAUACCAGACAUCUCUAUUACAUUAAUAUAGCUAAGUGAUGUUUAGCAGUCCCUUGGCAGCACAAUUUAAUUA [JR_SSTheophyB_Sub012]	474 nM
AGUUCUUGCCGAAGGAGCGAGGCAGAGUGAUGUUCUGCAGAUGUCGAAAGACAUCAACUGCCUCAGGUAGGUCGCGGCAUGAACA [#05 K4 Arginine B Exclusion]	87.3 nM
UUGAUAUGAUAAUAUCCUGUUUGAUAAAGACAGGAUAUAGAAAAUACUAGAAGGGUCAUUAUAUGCAGUGAUGUUGCAAAUAAGU [Exclusion FMN A Gf 23]	66.2 nM
UGAUACCAGACUGAUACCAGCUAGUGAUGUUAGCUAAAAUCAGGGUCAAAGACCCUGUCUGGCCCUUGGCAGCAGUCUGGUAUCU [TheoBX 10 #SwitchBubble #StaticStem]	191 nM
CAAUGAGUAUAAGAUGAUAUCAUAACAGAAGGAGCGAGUGAUAACUCAGGUAGGUCGCUGAAUUUAUCGAGUGAUGUUCGAUAAA [whbob_SS_Arginine_A_sa116]	166 nM
UGUGUUUACCUGACUCAGUGAUGUUGAGAAGGAGCGUGCAAAAGCACAGGUAGGUCGCUCAACCUAAAUUCAGGUGAGCACUAAA	252 nM

Same assay, conditions: Eterna round: R107; input ligand: tryptophan 2.4 mM

Sequence	apparent KD of K4 kissing-loop reporter
AAGGAAUGUAUAGAUUAUAUACAUUCAACAGAGGAUAUGCAUUAUUGCAGAAGGCUGAAUGCAGUGAUGUUGCAAUAAUUAUUUA [#09 K4 FMN A Same State]	129 nM
ACGUAGUACGUAGGAUAUCAGAGAUCAGUUAGUGAGAUCGAGUGAUGUUCGAUCAUGUGUUCAGUUUGAGAAGGAUGUAGUAGGA [KL-SSFMN-B5]	198 nM
GUACGCUCUCGAGUGAUGUUCGGUAAUCCUUAGGAUAUCGCUUUUGCGAGAAGGAAGGGAAUGAGGAAACUCGUUCUGAGUGUAC [FMN A 21]	743 nM
CCGAGCCUGACGAAAGUCAGGCUCUGCGAGCGAGGACCGGUACGGCCGCCACUCGGUGCAGUGAUGUUGCAUGGCCGCAAGGCCG [#2 Exclusion - Tryptophan A Attempt #22 (HarryS)]	312 nM
UUUUUGGAGAAUUAUAGUGAUGUUAUGAAGGAGGAUAUCUGGAGAUGGAGAAGGCCUAGUGGCUCAGCCAUGGAGGGUGGGUGGG [ExFMNA.aA]	611 nM
AGACUACCACACUGUCAAUAGACAGUGGACUAGGAUAUGCUGAUAAGCAGAAGGAGUGAUGUUCCUUGGUAGUCAAUAAAAUAAU [FmnAX 13 G28+U67]	265 nM
GGGAGAGCGCGAAGGAGCGCCCUGACAGGUUGCUGCCGUGGGCAGUGAUGUUGCUCAGUCCGGCAGGUAGGUCGCGUGCUCUCCC	177 nM
ACGACGCAUAGUGAUACCAGCUAUAUAUGAGUGAUGUUCUACCUAAAAUGGUAAUAAUUUAGCCCUUGGCAGCACUAUGCGUCAG [KL-SSTheoB4]	262 nM
AGGAGUGAUGUUCCUACAUAGACGGUCCAACGAGGACCGGUACGGCCGCCACUCGCGACCCAGUGAUGUUGGGAUUCACCGUACA [Exclusion Tryptophan A Gf 14]	812 nM
UUAGAAGUAUACUUCAAGAGCUAUACUGAUACCAGAGUCAAUUGACUCCCUUGGCAGCGGAUCGAGUGAUGUUCGUAAGCUCAUU [AK4 SS Theophylline A]	502 nM
UAAGAGGACCACUGCAAGAGUCCUCGAAUACGAGGACCGGUACGGCCGCCACUCGAUAACUUGCAGUGAUGUUGCAAGUAAGAAU [(T)''-(K)'-(T)'-(T1)-(T2)-(K1)-(K2)_Design1]	84.4 nM
UGUGUUUACCUGACUCAGUGAUGUUGAGAAGGAGCGUGCAAAGGCACAGGUAGGUCGCUCAACCUAAAUUCAGGUGAGCACUAAA	217 nM
UUCAGUGAUGUUGAACACUGUUGUAUAAACUAGGAUAUGCUGAUAAGCAGAAGGAGUGAUGUUCCGUUCAUCAUCAGAAUUAAAU [KL-XFMN-A3]	250 nM
